Measurements from US20220251562, “Anti-CD3 Aptamers for Use in Cell Targeting and Labeling” (Ixaka France, published 2022).

How the values were obtained:
[1] = target: T1, CD3 epsilon/gamma heterodimer (Homo sapiens, UniProt P07766;P09693 P07766:23-126,P09693:23-116); assay: SPR; steady state; kinetic 65.2 nM (Table 6); settings: tags: C-terminal human IgG1 Fc fusion, AcroBiosystems; chain copies: heterodimer 1:1 (inferred); label: 5'-biotin-TEG
Protocol: (§1) Binding affinity measurements were performed using a BIAcore T200 instrument (GE Healthcare). To analyze interactions between aptamers and CD3 proteins, 1000 Resonance Units of biotinylated aptamers were immobilized on Series S Sensor chips SA (GE Healthcare) according to manufacturer's instructions (GE Healthcare). SELEX buffer was used as the running buffer. The interactions were measured in the “Single Kinetics Cycle” mode at a flow rate of 30 μl/min and by injecting different concentrations of human CD3 ε/γ, CD3 ε/δ, IgG1 Fc and mouse CD3 ε/δ (Sino Biological). The highest protein concentration used was 100 nM. Other concentrations were obtained by 3-fold dilution. All kinetic data of the interaction were evaluated using the BIAcore T200 evaluation software. Table 3 below provides a summary of KD values obtained from surface plasmon resonance measurements.

IgG1 Fc (counter target) [2] = target: T2, IgG1 Fc (counter target) (Homo sapiens, UniProt P01857-1 P01857-1:100-330); assay: SPR; no interaction observed; settings: tags: AcroBiosystems; chain copies: 2; label: 5'-biotin-TEG
Protocol: as §1

[3] = target: T3, CD3 epsilon/delta heterodimer (Homo sapiens, UniProt P07766;P04234 P07766:23-126,P04234:22-105); assay: SPR; steady state; kinetic 3.2 uM (Table 6); settings: tags: C-terminal human IgG1 Fc fusion, AcroBiosystems; chain copies: heterodimer 1:1 (inferred); label: 5'-biotin-TEG
Protocol: as §1

IgG1 Fc (counter target) [4] = target: T2, IgG1 Fc (counter target); assay: SPR; NA, DPBS; settings: tags: AcroBiosystems; chain copies: 2; label: 5'-biotin-TEG
Protocol: as §1
(§2) Binding of anti-CD3 RNA aptamers to each of purified recombinant human CD3 ε/γ and CD3 ε/δ proteins was measured using surface plasmon resonance. Binding studies were performed generally as described in Example 5 except that SELEX buffer was replaced by DPBS. The highest protein concentration used was 300 nM. Other concentrations were obtained by 3-fold dilution. Binding to hIgG1 Fc was used as control. Binding to murine CD3 do (mCD3 c/S) was also measured.

[5] = target: T3, CD3 epsilon/delta heterodimer; assay: SPR; NA, DPBS; settings: tags: C-terminal human IgG1 Fc fusion, AcroBiosystems; chain copies: heterodimer 1:1 (inferred); label: 5'-biotin-TEG
Protocol: as §1, §2

[6] = target: T1, CD3 epsilon/gamma heterodimer; assay: SPR; kinetic, DPBS; settings: tags: C-terminal human IgG1 Fc fusion, AcroBiosystems; chain copies: heterodimer 1:1 (inferred); label: 5'-biotin-TEG
Protocol: as §1, §2

IgG1 Fc (counter target) [7] = target: T2, IgG1 Fc (counter target); assay: SPR; no interaction observed; printed CELTIC_CD3_22; settings: tags: AcroBiosystems; chain copies: 2; label: 5'-biotin-TEG
Protocol: as §1

IgG1 Fc (counter target) [8] = target: T2, IgG1 Fc (counter target); assay: SPR; no interaction observed; settings: tags: AcroBiosystems; chain copies: 2; label: 5'-biotin-TEG; remark: listed apart in the source
Protocol: Binding affinity measurements with the most interesting anti-CD3 aptamers derived from the core sequence were performed using a BIAcore T200 instrument (GE Healthcare) as already described in Example 4. To analyze interactions between aptamers and CD3 proteins, biotinylated aptamers were immobilized at a lower density than in Example 4 (100-500 RU) on Series S Sensor chips SA (GE Healthcare) according to manufacturer's instructions (GE Healthcare). Mouse and Cynomolgus CD3 ε/δ were purchased from AcroBiosystems. For human proteins, the highest concentration used was 100 nM and 1 μM for mouse and cynomolgus antigens. Other concentrations were obtained by 3-fold dilutions.
Table 8 below provides a summary of KD values obtained from surface plasmon resonance measurements. […] Variants of the core sequence identified in cell binding assays (CELTIC_core_12, CELTIC_core_24, CELTIC_core_29, CELTIC_core_40 and CELTIC_core_42) were all confirmed to have better affinities than the unmodified aptamer with human CD3 ε/γ. As already observed in Example 4, the affinities were in general slightly lower with CD3 ε/δ which is a consequence of the SELEX strategy that included more rounds on the CD3 ε/γ isoform. None of these sequences did bind to the Fc region of human IgG1.

[9] = target: T3, CD3 epsilon/delta heterodimer; assay: SPR; steady state; kinetic 3.7 nM (Table 3), 9.9 nM (Table 6), 217 pM (Table 8); settings: tags: C-terminal human IgG1 Fc fusion, AcroBiosystems; chain copies: heterodimer 1:1 (inferred); label: 5'-biotin-TEG
Protocol: as §1

IgG1 Fc (counter target) [10] = target: T2, IgG1 Fc (counter target); assay: SPR; NA, no interaction; Table 3 prints 56.3 mM; settings: tags: AcroBiosystems; chain copies: 2; label: 5'-biotin-TEG
Protocol: as §1

[11] = target: T1, CD3 epsilon/gamma heterodimer; assay: SPR; steady state; kinetic fits 5 nM (Table 3), 5.2 nM (Table 6), 119 pM (Table 8), 156 nM steady state (Table 9); SELEX buffer Mg Ca; settings: tags: C-terminal human IgG1 Fc fusion, AcroBiosystems; chain copies: heterodimer 1:1 (inferred); label: 5'-biotin-TEG
Protocol: as §1

T3 sequence (P07766 23-126, stated change not applied, chain 1 of 2): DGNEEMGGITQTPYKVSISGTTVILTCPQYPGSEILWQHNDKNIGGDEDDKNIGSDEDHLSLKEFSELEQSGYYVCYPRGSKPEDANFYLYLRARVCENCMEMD
T3 sequence (P04234 22-105, stated change not applied, chain 2 of 2): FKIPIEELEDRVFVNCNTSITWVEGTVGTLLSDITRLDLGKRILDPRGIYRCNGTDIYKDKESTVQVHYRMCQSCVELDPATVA
T1 sequence (P07766 23-126, chain 1 of 2): as the sequence (P07766 23-126, stated change not applied, chain 1 of 2) above
T1 sequence (P09693 23-116, chain 2 of 2): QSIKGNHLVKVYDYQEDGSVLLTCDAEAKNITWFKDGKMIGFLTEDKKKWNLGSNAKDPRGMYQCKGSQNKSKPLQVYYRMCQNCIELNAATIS

With GAGGGGTTTGGCATCGGGCCTGGCGCCATTCAAGCTATGC (ssDNA) [CELTIC_2s] the Kd [1] was 627 nM, the binding result (IgG1 Fc (counter target) [2]) was “no binding” and the Kd [3] was 260 nM.

In the case of GAUGAUAUCUUUAAUAUCAAUUGCAGCGAUUCUUGUUUGAGAAUAAAC (ssRNA, 2'-F pyrimidines) [ARACD3-3130001], the binding result (IgG1 Fc (counter target) [4]) is reported as “no binding”, the binding result [5] is reported as “no binding” and the Kd [6] is reported as 332 nM.

CGACCACAGGGGTTTGGCTTCGGGACTGGCGGTGGGCACT (ssDNA) [CELTIC_22s]: no binding (IgG1 Fc (counter target) [7]).

GGGTTTGGCATCGGGTCTGGC (ssDNA, 5'-HEG, 3'-3' dT) [CELTIC_core_40t]: no binding (IgG1 Fc (counter target) [8]).

For TTTCCGGGTGGGGGTTTGGCACCGGGCCTGGCGCAGGGATTCG (ssDNA) [CELTIC_1s], the Kd [9] was 125 nM, the binding result (IgG1 Fc (counter target) [10]) was “no binding” and the Kd [11] was 53 nM.
